This is an account of results in the nanobody polyreactivity screen of Harvey et al. (2022).

The data set is described as follows: yeast display, Sf9 membrane polyspecificity reagent, FACS + sequencing; frameworks hold sequencing errors. Summed up: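 A nanobody's polyreactivity label depends on the gate it was sorted from. Yeast display cells were stained with 10% biotinylated, detergent-solubilized Sf9 membrane reagent for 1 hour at 4 °C, enriched on streptavidin microbeads and sorted by FACS. The low and high (top ~1%) gates were set on anti-HA fluorescence for expression and streptavidin fluorescence for reagent binding.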
Turning to “QDPLVESGGGVVQAGGSLRLSCAASGSTFSDYAMGWYRQAPGKERELVAAISVSDGSTYYADSVKGRFTISRDIAKNSVYLQMNSLKPEETAVYYCAAEYPYFVYSYFRFDYWGQGTQVTVSS”, the “polyreactivity (PSR sort gate)” value was “low polyreactivity”.

As for “QVQLVESGGGLVQAGGSLRLTCAASGSTIADNAMGWYRPAPGTERELVAGITRRGGSTYYADSVKGRFTISRDNAKNTVYLQMNSLKPEDTAVYYCNKGPVRGRYSVWPIEMDYWGQGTQVTVSS”, the “polyreactivity (PSR sort gate)” value is on record as “low polyreactivity”. Consider “QVQLVESGRGLVQAGGSLRLSCAASGFTLICNARGCYRQAPGKERELVAAITWSGGSTYYADSVKGRFTISRDKAKNTVYLQMNSLKPEDTAVYYCAADYSIQSNDDWGQGTQVTVSS”, for which the “polyreactivity (PSR sort gate)” value is on record as “low polyreactivity”. “QVQLVESGGGLLQAGGSLRLSCAASGITFYYNTMGWYRQAPGKERELVASISGGCSTYYADSVKGRFTISRDNAKNTVFLQMKSLIPEDTAVYYCNAQGSLFRGWFDYDYWGQGTQVTVSS”: the “polyreactivity (PSR sort gate)” value is reported as “low polyreactivity”.

On to “QVQLVESGGGLVQAGGSLRISCAASGYTVKSYAMGWYRQAPGKERELVAAISNGGNTYYADSVKGRFTISRDNAKNTVYLQMNSLKPEDTAVYYCAARYGYFYSRYDHWGQGTQVTVSS”, for which the “polyreactivity (PSR sort gate)” value is recorded as “low polyreactivity”. In the case of “QVQLVESGGGLVQAGGSLRLSCAASGSTFDPNVMGWYRQAPGNERELVADITTTGVSTYYADSVKGRFTISRDNAKNTVYLQMNSLKPEDTAVYYCNAKLYWYLTRDAYRYRYTYDYWGQGTQVTVSS” it was “low polyreactivity”; in that of “QVQLVESGGGLVQAGGRLRLSCAASGRTFTVYAMGWYRQAPGKEREFVAAITERGGSTYYADSVKGRFTISRDNAKNTVYLKMNSLKPEDTSVYYFAAVFYWRPGWYVRFDYWGQGTQVTVSS”, “low polyreactivity”. Take “QVQLVESGCGLVHAGGSLRLSCAASGSNFGDYAMGCYRQAPGKERELVAAITKSGGTTYYADSVKGRFTISRDNAKNTVYLQMNSLKPEDTSFYYCAADPIRYRSRHKYGYWGQGTQVTVSS”: the “polyreactivity (PSR sort gate)” value was “low polyreactivity”.

On to “QVQLVESGGGLVQAGGSLRLSCAASGGIFRPYAMGWYRQAPGKERELVAAITYNGGSTYYADSVKGRFTISRDNAKNTVYLQMNSLKPEDTAVYYCAAVSYSGPYAYEYWGQGTQVTVSS”, for which the “polyreactivity (PSR sort gate)” value is reported as “high polyreactivity”. On to “QVQLVESGGGLVQAGGSLRLSCAASGSIFTLNAMGWYRQAPGKERELVAAIRWSGGSTYYADSVKGRFTISRDNAKNTVYLQMNSLKPEDTAVYYCAAKYPSDYYSRGFNYWGQGTQVTVSS”, for which the “polyreactivity (PSR sort gate)” value is reported as “high polyreactivity”. In the case of “QVQLVDSGGGLVQAGGSLRLSCAASGTTFYSYAMGWYRQAPGKERELVAAISSSGDSTYYADSVKGRFTISRDNAKNTVYLQMNSLKPEDTAVYYCAARKGELWFPQGGYNYWGQGTQVTVLS” it was “low polyreactivity”; in that of “QVQLVESGGGLVQAGVSLRLSCAASGSTFTYNAMGWYRQAPGKERELVAAISYGGGRTYYADSVKGRFTISRDNAKNTVYLLMNSLKPEDTAVYYCNRYRYSYVEFDYWGQGTQVTVSS”, “high polyreactivity”. With “QVQLVESGGGLVQAGGSLRLSCAASGGTFLFYGMGWYRQAPGNERELVAVITWSGGSTYYADSVKGRFTISRDTAKNTVYLHMNSLKPVDTAVYYCAADGYFYFDYPWMNYWGQGTQVTVSS”, the “polyreactivity (PSR sort gate)” value is listed as “low polyreactivity”. As for “QVQLVESVGGLVQAGGSLRLSCPASGITFEQYAMGWYRQAPGKEREWVAAISSNGGITFYADSVKGRFTISRDNAKNTVYLQMNSLKPEDTAVYYCAARLCVTYPYIAYDYWGQGTQVTVSS”, the “polyreactivity (PSR sort gate)” value was “high polyreactivity”. “QVQLVESGGGLVQAGGSLRLSCAASGSTFTQYVMGWYRQAPGKERELVAAISDSGSTYYADSVKGRFTISRDNAKNTVYLQMNSLKPEDTAVYYCNADDVEFYYGYGYLDYDYWGQGTQVTVSS”: the “polyreactivity (PSR sort gate)” value is recorded as “low polyreactivity”.

With “QVQLVESGGGLVQAGGSLRLSCAASGRIFSVYTKGWYRQAPGKERELVATISSGGRTNYADSVKGRFTISRDNAKNTVYLQINSLKPEDSAVYYCAAVPYGFVGYDDYWGQGSQVTVSS”, the “polyreactivity (PSR sort gate)” value is reported as “low polyreactivity”.
